According to US8835136B2, “Engineered amine dehydrogenases and methods of use thereof” (Georgia Tech Research Corporation, priority 2012, dated 2014):
Several values for one entry are separate records, joined by “and”; a condition that tells them apart may be missing. Equal entries are not always repeated.

Tests used:
[1] = Temperature vs activity profile for C1-AmDH; type: biochemical
Procedure: The temperature activity profile was determined over a wide range until the limits of the instrument were reached. […] In contrast it is barely active between 20-30° C., so all measurements for activity were determined routinely at 60° C. Product conversions were done at 40° C. and 50° C., due to the temperature limits for regeneration enzyme, FDH. Temperature activity profiles were determined for pFPA and acetophenone (FIGS. 22A and 22B).

[2] = T50 after 30 min (T50^30) of C1-AmDH; type: physicochemical
Procedure: The T50 (after 30 min—T50^30) was also determined for the C1-AmDH. The T50^30 value was determined to be dependent on the buffer, in PBS, the enzyme was staple for 30 min at 50 C, at 60 C an beyond the enzyme deactivated within the timescale of the experiment. In the presence of 4M ammonium formate buffer we found the T50^30 value was determined to be at 70 C.

[3] = C1-AmDH kinetic values; type: biochemical; conditions: 60° C.
Procedure: (§1) The values for acetophenone, pFPA; NADH and NH3 were determined and are summarized in Table XX, all measured at 60° C.

[4] = C1-AmDH amine activity measured photometrically; type: biochemical
Procedure: Activities were also measured photometrically with 100 mM (+/−) methylhenzylamine (0.58 U/mg) as well as 100 mM (R)-methylbenzylamine. (0.98 U/mg), 50 mM (R,S)-adamanylethlamine (0.04 U/mg) and determined the enantioselectivity for this enzyme to be (R).

[5] = Substrate conversion using C1-AmDH and cb-FDH, chiral GC; type: biochemical
Procedure: Product formation was characterized for two substrates. The test assay utilized the C1-AmDH in 24 h conversion at 40° C. with cofactor regeneration in a biphasic solvent system with heptane as the organic layer and 5 M ammonium formate as the aqueous layer. Conversions were also carried out at 50° C., which is the upper limit for the cofactor regeneration enzyme FDH.
This is not a quantitative evaluation, since amines are more water soluble than their ketone counterparts and only the organic layer was used for chiral gas chromatography (GC). The peaks were compared to the corresponding standard amines and both determined to be R-specific (FIGS. 24A and 24B).

[6] = C1-AmDH amination at 60° C. in 4 M ammonium formate buffer; type: biochemical; conditions: 20 mM
Procedure: (§2) All ketone substrates for the amination direction were measured at 20 mM and dissolved at 60° C. in 4 M ammonium formate buffer. Enzyme specificity was measured at 60° C. for 5 min. with NADH as the cofactor at 340 nm.

[7] = as above; type: biochemical
Procedure: as §2, §1

B1: C1-AmDH: chimeric AmDH: F-AmDH substrate binding domain with L-AmDH NAD-binding domain, SEQ ID NO:20 (protein)
chain: SLVEKTSIIKDFTLFEKMSEHEQVVFCNDPATGLRAIIAIHDTTLGPALGGCRMQPYNSVEEALEDALRLSKGMTYSCAASDVDFGGGKAVIIGDPQKDKSPELFRAFGQFVDSLGGRFYTGTDMGTNMEDFIHAMKETNCIVGVPEAYGSSGNPSPATAYGVYRGMKAAAKEAFGSDSLEGKVVAVQGVGNVAYHLCRHLHEEGAKLIVTDINKEAVARAVEEFGAKAVDPNDIYGVECDIFAPCALGGIINDQTIPQLKAKVIAGSALNQLKEPRHGDMIHEMGIVYAPDYVINAGGCINVADELYGYNRERAMKKIEQIYDNIEKVFAIAKRDNIPTYVAADRMAEERIETMRKARSQFLQNGHHILSRRRAR
In the case of B1, the temperature activity profile [1] is reported as “did not show any decline of activity up to 80 °C”, the “T50^30 value” ([2]; 4M ammonium formate buffer, 30 min) is reported as 70 C and the “temperature at which stable for 30 min” value ([2]; in PBS) is reported as 50 C. The “kcat, NADH” value [3] was 0.92 s⁻¹, the “kcat, NH3” value [3] was 1.09 s⁻¹ and the Km ([3]; read-out: KM, NADH) was 40 µM. For the same molecule, the enantioselectivity [4] was “(R)”, the “activity, (R,S)-adamanylethlamine” value ([4]; 50 mM) was 0.04 U/mg and the “activity, (+/−) methylhenzylamine” value ([4]; 100 mM) was 0.58 U/mg. The “activity, (R)-methylbenzylamine” value ([4]; 100 mM) was 0.98 U/mg, the “product formation from methylcyclohexanone” value ([5]; 24 h, 40° C., heptane / 5 M ammonium formate) was “no product” and the “enantiospecificity of product amines” value ([5]; methylbenzylamine and p-fluorophenylproplyamin, chiral GC, organic layer) was “R-specific”. The “1,3-phenylbutanedione, U/mg” value [6] was 0.06 U/mg, the “1,3-phenylbutanedione, U/ml” value [6] was 0.3 U/ml and the “3-methyl-1-phenylbutanone, U/mg” value [6] was 0.03 U/mg. For the same molecule, the “3-methyl-1-phenylbutanone, U/ml” value [6] was 0.16 U/ml, the “3-oxo-phenylbutyricacid ethylester, U/mg” value [6] was 0 U/mg and the “3-oxo-phenylbutyricacid ethylester, U/ml” value [6] was 0 U/ml. For the same molecule, the “Adamantylmethylketone, U/mg” value [6] was 0.07 U/mg, the “Adamantylmethylketone, U/ml” value [6] was 0 U/ml and the “Benzophenone, U/mg” value [6] was 0 U/mg. The “Benzophenone, U/ml” value [6] was 0 U/ml, the “a-tetralone, U/mg” value [6] was 0.1 U/mg and 0.1074 U/mg and the “a-tetralone, U/ml” value [6] was 0.58 U/ml. The “b-tetralone, U/mg” value [6] was 0 U/mg, the “b-tetralone, U/ml” value [6] was 0 U/ml and the “dibenzylketone, U/ml” value [6] was 1.39 U/ml. The “pinacolone, U/mg” value [6] was 0.1333 U/mg, the “pinacolone, U/ml” value [6] was 0.72 U/ml and the “kcat, Acetophenone” value [7] was 0.24 s⁻¹. For the same molecule, the “kcat, pFPA” value [7] was 1.24 s^−1, the “Acetophenone, U/mg” value ([7]; 20 mM, 4 M ammonium formate) was 0.3 U/mg and 0.3019 U/mg and the “Acetophenone, U/ml” value ([7]; 20 mM, 4 M ammonium formate) was 1.63 U/ml. For the same molecule, the “pFPA, U/mg” value ([7]; 20 mM, 4 M ammonium formate) was 1.7 U/mg and 1.725 U/mg, the “pFPA, U/ml” value ([7]; 20 mM, 4 M ammonium formate) was 13.8 U/ml and the Km ([7]; read-out: KM, Acetophenone) was 5200 µM. For the same molecule, the Km ([7]; read-out: KM, pFPA) was 1100 µM.
